Normalised SPOT signal, Boehringer light units (BLU); mean over the file's lines of this peptide data for 19 molecules are collected here from paper PMC314469, “Protein Interaction Networks by Proteome Peptide Scanning” (PLoS Biology, 2004).

T1: Rvs167 SH3 (RV167_YEAST), P39743
T1 chain: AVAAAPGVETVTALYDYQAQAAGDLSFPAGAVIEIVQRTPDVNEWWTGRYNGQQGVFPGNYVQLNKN

T2: Boi2 SH3 (BOI2_YEAST), P39969
T2 chain: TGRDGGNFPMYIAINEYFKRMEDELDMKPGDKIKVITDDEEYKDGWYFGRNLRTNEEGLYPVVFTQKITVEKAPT

T3: Yfr024 SH3 (LSB3_YEAST), P43603
T3 chain: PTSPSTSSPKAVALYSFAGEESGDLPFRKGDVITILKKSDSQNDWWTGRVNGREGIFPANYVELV

T4: Boi1 SH3 (BOI1_YEAST), P38041
T4 chain: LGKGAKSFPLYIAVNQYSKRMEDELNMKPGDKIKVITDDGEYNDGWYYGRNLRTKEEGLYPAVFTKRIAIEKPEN

T5: Yhr016c SH3 (YSC84_YEAST), P32793
T5 chain: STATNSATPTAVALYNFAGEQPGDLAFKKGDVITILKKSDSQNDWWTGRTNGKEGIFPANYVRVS

B1: YMR137C 188-201 (peptide)
chain: ISNPSSPAKTKRDI
B2: YPR185W 368-381 (peptide)
chain: ISRPVQPFKVGSIG
B3: YFR019W 390-403 (peptide)
chain: ISTPPPPPKMAIPA
B4: YLR240W 75-88 (peptide)
chain: IYTPYIPFRNSRTW
B5: YBR122C 41-54 (peptide)
chain: ITLPRRPAKKIQLG
B6: YGR094W 408-421 (peptide)
chain: IQHPFLPRKIPIIT
B7: YGR020C 97-110 (peptide)
chain: KDHPYDPEKDSVLK
B8: YMR266W 741-754 (peptide)
chain: KELPEFPIKKYHKR
B9: YCL027W 390-403 (peptide)
chain: IPTPSKPLKKRKKR
B10: YMR192W 122-135 (peptide)
chain: ITSPPLPPRADSIE
B11: YIL010W 28-41 (peptide)
chain: ISTPEVPKKKIKTG
B12: YOR384W 132-145 (peptide)
chain: IRYPVTPNKASLDR
B13: YMR022W 62-75 (peptide)
chain: KDYPLSPPKLTFTP
B14: YOR233W 333-346 (peptide)
chain: KERPKPPNKGDVGR
B15: YIR010W 422-435 (peptide)
chain: KALPKEPKKLLPNS
B16: YOR346W 673-686 (peptide)
chain: KDAPIEPPKYMGMG
B17: YDR409W 859-872 (peptide)
chain: IVNPFIPRRPYSNV
B18: YDR501W 316-329 (peptide)
chain: INQPSTPKKLKRKS
B19: YHR147C 187-200 (peptide)
chain: KFHPPEPYKGKGIY

The first assay has as its target T1, Rvs167 SH3 (RV167_YEAST), P39743. Description: SPOT array.
B1 gave a normalised SPOT signal, Boehringer light units (BLU); mean over the file's lines of this peptide of 17.6.
Still for that read-out and setting: next, B2: 22.7; B3: 26.6.
Take B4: the normalised SPOT signal, Boehringer light units (BLU); mean over the file's lines of this peptide is 474.
Molecule B5 came in with a normalised SPOT signal, Boehringer light units (BLU); mean over the file's lines of this peptide of 13700.
For the molecule B6, the normalised SPOT signal, Boehringer light units (BLU); mean over the file's lines of this peptide turned out to be 35.
On the same count and under the same terms, to B7 belongs 21.7.
In turn, B8 showed a normalised SPOT signal, Boehringer light units (BLU); mean over the file's lines of this peptide of 29.9.
On the same count and under the same terms, to B9 belongs 85.
On the same count and under the same terms, to B10 belongs 31300; to B11, 0; to B12, 41.2.
B13 showed a normalised SPOT signal, Boehringer light units (BLU); mean over the file's lines of this peptide of 25.5.
Still for that read-out and setting: to B14 belongs 10.8; to B15, 44.4.
On the same count and under the same terms, to B16 belongs 39.9; to B17, 650.
Molecule B18 came in with a normalised SPOT signal, Boehringer light units (BLU); mean over the file's lines of this peptide of 62.6.
B19 returned a normalised SPOT signal, Boehringer light units (BLU); mean over the file's lines of this peptide of 53.2.

In another assay the target is T2, Boi2 SH3 (BOI2_YEAST), P39969. Description: SPOT array.
Molecule B1 came in with a normalised SPOT signal, Boehringer light units (BLU); mean over the file's lines of this peptide of 48.8.
On the same count and under the same terms, to B2 belongs 79.1; to B3, 34.4; to B4, 1450.
On to B5, for which the normalised SPOT signal, Boehringer light units (BLU); mean over the file's lines of this peptide is 106.
As for B6, the normalised SPOT signal, Boehringer light units (BLU); mean over the file's lines of this peptide amounted to 192.
Same read-out and setting: to B7 belongs 3.7; to B8, 22.
Consider B9, for which the normalised SPOT signal, Boehringer light units (BLU); mean over the file's lines of this peptide is 50.2.
The same measure, in the same setting: next, B10: 35.5; B11: 23.9.
The same measure, in the same setting: to B12 belongs 166; to B13, 33.9.
In turn, B14 had a normalised SPOT signal, Boehringer light units (BLU); mean over the file's lines of this peptide of 23.8.
Same read-out and setting: to B15 belongs 63.5; to B16, 74.7; to B17, 142.
Same read-out and setting: next, B18: 22.2; B19: 38.2.

The target of the next assay is T3, Yfr024 SH3 (LSB3_YEAST), P43603. Put plainly: SPOT array.
Regarding B1, the normalised SPOT signal, Boehringer light units (BLU); mean over the file's lines of this peptide amounted to 108.
On the same count and under the same terms, to B2 belongs 1120; to B3, 335; to B4, 3280.
B5 returned a normalised SPOT signal, Boehringer light units (BLU); mean over the file's lines of this peptide of 48600.
The same measure, in the same setting: to B6 belongs 1120; to B7, 0; to B8, 1070.
In the case of B9, the normalised SPOT signal, Boehringer light units (BLU); mean over the file's lines of this peptide was found to be 1580.
Still for that read-out and setting: to B10 belongs 39300.
On the same count and under the same terms, next, B11: 4970; B12: 94.5; B13: 16.
Molecule B14 yielded a normalised SPOT signal, Boehringer light units (BLU); mean over the file's lines of this peptide of 326.
Same read-out and setting: to B15 belongs 284; to B16, 43.8; to B17, 7710.
Take B18: the normalised SPOT signal, Boehringer light units (BLU); mean over the file's lines of this peptide is 2480.
Still for that read-out and setting: next, B19: 45.7.

A further assay concerns the target T4, Boi1 SH3 (BOI1_YEAST), P38041. Description: SPOT array.
For B1, the normalised SPOT signal, Boehringer light units (BLU); mean over the file's lines of this peptide amounted to 90.8.
On the same count and under the same terms, next, B2: 60.8; B3: 110.
For the molecule B4, the normalised SPOT signal, Boehringer light units (BLU); mean over the file's lines of this peptide came to 5520.
Consider B5, for which the normalised SPOT signal, Boehringer light units (BLU); mean over the file's lines of this peptide amounted to 150.
B6 yielded a normalised SPOT signal, Boehringer light units (BLU); mean over the file's lines of this peptide of 327.
Still for that read-out and setting: to B7 belongs 51.3; to B8, 119.
On the same count and under the same terms, next, B9: 97.5; B10: 181; B11: 275.
Still for that read-out and setting: next, B12: 86.7; B13: 73.
Molecule B14 came in with a normalised SPOT signal, Boehringer light units (BLU); mean over the file's lines of this peptide of 168.
Same read-out and setting: next, B15: 208.
Molecule B16 displayed a normalised SPOT signal, Boehringer light units (BLU); mean over the file's lines of this peptide of 119.
The same measure, in the same setting: to B17 belongs 1120; to B18, 152.
Consider B19, for which the normalised SPOT signal, Boehringer light units (BLU); mean over the file's lines of this peptide came out at 96.1.

Another assay deals with T5, Yhr016c SH3 (YSC84_YEAST), P32793. Description: SPOT array.
Take B1: the normalised SPOT signal, Boehringer light units (BLU); mean over the file's lines of this peptide was 130.
B2 gave a normalised SPOT signal, Boehringer light units (BLU); mean over the file's lines of this peptide of 185.
B3 displayed a normalised SPOT signal, Boehringer light units (BLU); mean over the file's lines of this peptide of 189.
Still for that read-out and setting: to B4 belongs 683; to B5, 36800; to B6, 250.
Still for that read-out and setting: next, B7: 0; B8: 6.2.
On the same count and under the same terms, to B9 belongs 213; to B10, 93200; to B11, 226.
The molecule B12 yielded a normalised SPOT signal, Boehringer light units (BLU); mean over the file's lines of this peptide of 207.
Still for that read-out and setting: to B13 belongs 10.6; to B14, 60.1; to B15, 2810.
Molecule B16 returned a normalised SPOT signal, Boehringer light units (BLU); mean over the file's lines of this peptide of 99.2.
Take B17: the normalised SPOT signal, Boehringer light units (BLU); mean over the file's lines of this peptide amounted to 1650.
In turn, B18 displayed a normalised SPOT signal, Boehringer light units (BLU); mean over the file's lines of this peptide of 126.
With B19, the normalised SPOT signal, Boehringer light units (BLU); mean over the file's lines of this peptide was 114.
